# B1: MceG-GFP (MceG, MSMEG_1366, chromosomally tagged with GFP at its C-terminus) (enzyme, UniProt A0QS64 1-360, looked up)
# chain: MGVQIDVTGLSKSFGSSKIWEDVTMSIPAGEVSVLLGPSGTGKSVFLKSLIGLLRPERGSIVIDGTDILQCSAKELYEIRTLFGVLFQDGALFGSMNIYDNTAFPLREHTKKSESEIRKIVMEKLDLVGMPNDGHKFPGEISGGMRKRAGLARALVLDPEIILCDEPDSGLDPVRTAYLSQLLIDINAQIDATVLIVTHNINIARTVPDNMGMLFRKQLVMFGPREVLLTSEEPVVKQFLNGRRIGPIGMSEEKDEATAAAEQALVDAGQHDGGVEEIEGVPPQLQATPGMPERKAVARRKARVREILHTLPPAAQAAILEELDRDQPQLSAPTTQTAATAPVENYDDSPTGVIEVPKQA
# notes: MceG, ATPase of the MCE ABC transporters, Mycobacterium smegmatis, locus MSMEG_1366; endogenous protein; printed residue numbers run to 360 (residues 1, 256-280 and 326-360 not modelled); also called GFP-tagged MceG; MceG ATPase; not shown: eGFP, C-terminal, kept
# Molecular target: the molecule itself
# Assay: cryo-EM structure
protein,measurement,value
B1,stoichiometry N,2

# Reference: publication PMC9882608, “Structure of an endogenous mycobacterial MCE lipid transporter” (Research Square, 2023)
